# T1: wildtype feline IL-31 protein (Feline_IL31_wildtype) (feline)
# T1 construct: Full length feline IL-31 with C-terminal His tag, secreted from ExpiCHO cells; also called fIL-31
# T1 chain: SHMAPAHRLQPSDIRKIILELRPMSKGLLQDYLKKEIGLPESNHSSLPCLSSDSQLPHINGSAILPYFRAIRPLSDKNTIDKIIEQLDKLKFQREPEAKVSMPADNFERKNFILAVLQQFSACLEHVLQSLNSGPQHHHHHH
# T2: equine IL-31 protein (Equine_IL31) (equine)
# T2 construct: Recombinant equine IL-31
# T2 chain: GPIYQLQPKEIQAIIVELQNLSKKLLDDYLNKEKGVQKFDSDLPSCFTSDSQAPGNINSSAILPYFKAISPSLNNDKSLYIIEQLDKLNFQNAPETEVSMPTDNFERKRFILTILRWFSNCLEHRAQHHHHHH
# T3: canine IL-31 protein (Canine_IL31) (canine)
# T3 chain: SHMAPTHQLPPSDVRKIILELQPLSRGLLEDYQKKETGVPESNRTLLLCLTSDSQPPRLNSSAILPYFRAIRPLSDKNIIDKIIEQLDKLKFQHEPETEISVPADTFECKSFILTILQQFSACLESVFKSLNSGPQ
# B1: A20 (antibody, V domains shown)
# VH: QVLLVQSGAEVRTPGASVKIFCKASGYSFTSYTIHWLRQAPAQGLEWMGNINPTSGYTENNQRFKDRLTLTADTSTNTAYMELSSLRSADTAMYYCARWGFKYDGEWSFDVWGAGTTVTVSS
# VL: EIQMTQSPSSLSASPGDRVTITCRASQGISIWLSWYQQKPGNIPKVLINKASNLHAGVPSRFSGSGSGTDFTLTISSLEPEDAATYYCLQSQTYPLTFGGGTKLEIK
# B2: A24 (antibody, V domains shown)
# VH: QVLLVQSGAEVRTPGASVKIFCKASGYSFTSYTIHWLRQAPAQGLEWMGNINPTSGYTENNQRFKDRLTLTADTSTNTAYMELSSLRSADTAMYYCARWGFKYDGEWSFDVWGAGTTVTVSS
# VL: EIQMTQSPSSLSASPGDRVTITCRASQGISIWLSWYQQKPGNIPKVLINKASNLHIGVPSRFSGSGSGTDFTLTISSLEPEDAATYYCLQSQAYPLTFGGGTKLEIK
# B3: A28 (antibody, V domains shown)
# VH: QVLLVQSGAEVRTPGASVKIFCKASGYSFTSYTIHWLRQAPAQGLEWMGNINPTSGYTENNQRFKDRLTLTADTSTNTAYMELSSLRSADTAMYYCARWGFKYDGEWSFDVWGAGTTVTVSS
# VL: EIQMTQSPSSLSASPGDRVTITCRASQGISIWLSWYQQKPGNIPKVLINKASNLHIGVPSRFSGSGSGTDFTLTISSLEPEDAATYYCLQSQTYPLAFGGGTKLEIK
# B4: A27 (antibody, V domains shown)
# VH: QVLLVQSGAEVRTPGASVKIFCKASGYSFTSYTIHWLRQAPAQGLEWMGNINPTSGYTENNQRFKDRLTLTADTSTNTAYMELSSLRSADTAMYYCARWGFKYDGEWSFDVWGAGTTVTVSS
# VL: EIQMTQSPSSLSASPGDRVTITCRASQGISIWLSWYQQKPGNIPKVLINKASNLHIGVPSRFSGSGSGTDFTLTISSLEPEDAATYYCLQSQTYPATFGGGTKLEIK
# B5: A25 (antibody, V domains shown)
# VH: QVLLVQSGAEVRTPGASVKIFCKASGYSFTSYTIHWLRQAPAQGLEWMGNINPTSGYTENNQRFKDRLTLTADTSTNTAYMELSSLRSADTAMYYCARWGFKYDGEWSFDVWGAGTTVTVSS
# VL: EIQMTQSPSSLSASPGDRVTITCRASQGISIWLSWYQQKPGNIPKVLINKASNLHIGVPSRFSGSGSGTDFTLTISSLEPEDAATYYCLQSQTAPLTFGGGTKLEIK
# B6: A26 (antibody, V domains shown)
# VH: QVLLVQSGAEVRTPGASVKIFCKASGYSFTSYTIHWLRQAPAQGLEWMGNINPTSGYTENNQRFKDRLTLTADTSTNTAYMELSSLRSADTAMYYCARWGFKYDGEWSFDVWGAGTTVTVSS
# VL: EIQMTQSPSSLSASPGDRVTITCRASQGISIWLSWYQQKPGNIPKVLINKASNLHIGVPSRFSGSGSGTDFTLTISSLEPEDAATYYCLQSQTYALTFGGGTKLEIK
# B7: A23 (antibody, V domains shown)
# VH: QVLLVQSGAEVRTPGASVKIFCKASGYSFTSYTIHWLRQAPAQGLEWMGNINPTSGYTENNQRFKDRLTLTADTSTNTAYMELSSLRSADTAMYYCARWGFKYDGEWSFDVWGAGTTVTVSS
# VL: EIQMTQSPSSLSASPGDRVTITCRASQGISIWLSWYQQKPGNIPKVLINKASNLHIGVPSRFSGSGSGTDFTLTISSLEPEDAATYYCLQSATYPLTFGGGTKLEIK
# B8: ZIL171 (recombinant fully canine antibody) (antibody, V domains shown)
# VH: EVQLVESGGDLVKPAGSLRLSCVASGFTFRTYVMNWVRQAPGKGLQWVASINGGGSSPTYADAVRGRFTVSRDNAQNSLFLQMNSLRAEDTAIYFCVVSMVGPFDYWGHGTLVTVSS
# VL: SSVLTQPPSVSVSLGQTATISCSGKSLSYYYAQWFQQKAGQAPVLVIYKDTERPSGIPDRFSGSSSGNTHTLTISGARAEDEADYYCESAVSSDTIVFGGGTHLTVLR
# notes: also called CAN-ZIL171
# B9: mouse:canine 11E12 chimera (antibody)
# heavy: QVQLQQSGAELVKPGASVKLSCKASGYTFKYYDINWVRQRPEQGLEWIGWIFPGDGGTKYNETFKGKATLTTDKSSSTAYMQLSRLTSEDSAVYFCARGGTSVIRDAMDYWGQGTSVTVSSASTTAPSVFPLAPSCGSTSGSTVALACLVSGYFPEPVTVSWNSGSLTSGVHTFPSVLQSSGLYSLSSMVTVPSSRWPSETFTCNVAHPASKTKVDKPVPKRENGRVPRPPDCPKCPAPEMLGGPSVFIFPPKPKDTLLIARTPEVTCVVVDLDPEDPEVQISWFVDGKQMQTAKTQPREEQFNGTYRVVSVLPIGHQDWLKGKQFTCKVNNKALPSPIERTISKARGQAHQPSVYVLPPSREELSKNTVSLTCLIKDFFPPDIDVEWQSNGQQEPESKYRTTPPQLDEDGSYFLYSKLSVDKSRWQRGDTFICAVMHEALHNHYTQESLSHSPGK
# light: DIVLTQSPASLAVSLGQRATISCRASESVDNYGISFMHWYQQKPGQPPKLLIYRASNLESGIPARFSGSGSRTDFTLTINPVETDDVATYYCQQSNKDPLTFGAGTKLELKRNDAQPAVYLFQPSPDQLHTGSASVVCLLNSFYPKDINVKWKVDGVIQDTGIQESVTEQDKDSTYSLSSTLTMSSTEYLSHELYSCEITHKSLPSTLIKSFQRSEC
# notes: Mouse variable regions on canine IgG constant regions; made in HEK 293 cells; also called canine chimeric form of 11E12
# B10: Feline 11E12 1.1 FW2 (antibody, V domains shown)
# VH: QVLLVQSGAEVKKPGASVKIFCKASGYSFTYYDINWLRQAPEQGLEWMGWIFPGDGGTKYNETFKGRLTLTADTSTNTVYMELSSLRSADTAMYYCARGGTSVIRDAMDYWGQGALVTVSS
# VL: EIQMTQSPSSLSASPGDRVTITCRASESVDNYGISFMHWYQQKPGQPPKLLIYRASNLESGVPSRFSGSGSGTDFTLTISSLEPEDAATYYCQQSNKDPLTFGQGT
# notes: Feline 11E12 VL1 with the mouse FW2; Feline heavy and kappa constant regions
# How the values were obtained:
# [1] = target: T1, wildtype feline IL-31 protein …; test: Biacore, feline IL-31 chip, mAb 100 nM, share of points within parent mean +/-3 SD; parameters: key: % of mutant data points within parent mAb mean ±3 SD
# Excerpt: The region of an antibody responsible for antigen recognition represents the paratope. A paratope is created by a combination of amino acids in the complementarity determining regions (CDRs) of both the heavy and light chain variable regions. The binding between antibody and antigen is often mediated by side chains of CDR residues with side chains or carbohydrate moieties of the antigen. To help define critical side chains involved in antibody recognition alanine scanning mutagenesis was performed on each CDR residue in both the heavy and light chain. These mutants were then individually tested for the ability to bind feline IL-31 using the biacore and evaluated for inhibition of IL-31-mediated signaling in the FCWF-4 cell based assay.
# The mean response unit of four replicates of the parent mAb+/−3 standard deviations was used to generate parameters to define a threshold of response units comprising both the on- and off-rates antibody binding (FIG. 22). The percentage of data points for each mutant fell within this threshold was then used to define a “% similarity score” (FIG. 23).
# [2] = target: T1, wildtype feline IL-31 protein …; test: cell-based or functional assay
# [3] = target: T2, equine IL-31 protein (Equine_IL31); test: SPR (Biacore), IL-31 surface, single antibody concentration
# Method: For the indirect ELISA method, antibody binding to wildtype and feline IL-31 15H05 mutant proteins was assessed. All nine canine monoclonal antibodies (ZIL1, ZIL8, ZIL8, ZIL11, ZIL69, ZIL94, ZIL154, ZIL159, and ZIL171) were capable of binding to wildtype feline IL-31 and binding was impacted by mutations in the mAb 15H05 epitope region confirming the correct binding phenotype determined during the initial screening used to identify them. In comparison, the 11E12 antibody bound to the wild-type feline IL-31 and its binding was not impacted by the mutations in the 15H05 epitope region as evidenced by the data in FIG. 4. To confirm binding, biacore analysis was performed using canine, feline, equine, human, feline 15H05 mutant, and feline 11E12 mutant IL-31 proteins as surfaces and a single test concentration of antibody. Similar to ELISA observations, all antibodies tested bound to wildtype feline IL-31. In agreement with the data described above in this section, mouse antibodies 11E12 and 15H05 both bound to canine and feline IL-31 surfaces. Three additional antibodies where shown to have this dual binding property, ZIL69 (partial canine binding), ZIL94, and ZIL159. From this group of nine fully canine antibodies, only ZIL1 and ZIL9 cross-reacted with equine IL-31. Of note, antibody 15H05 was the only one of all assayed herein that bound to canine, feline, and equine IL-31 indicating some level of epitope conservation across the three species. In contrast, none of the antibodies described herein bound to human IL-31. Additional biacore surfaces were used to verify ELISA observations showing differential binding of antibodies to wildtype feline IL-31 and two proteins with mutations in the 15H05 (15H05 mutant) or 11E12 (11E12 mutant) epitopes.
# [4] = target: T1, wildtype feline IL-31 protein …; test: SPR (Biacore), IL-31 on chip, 1:1 fit
# Method: The affinity with which candidate mAbs bind canine and feline IL-31 was determined using surface plasmon resonance (SPR) on a Biacore system (Biocore Life Sciences (GE Healthcare), Uppsala, Sweden). To avoid affinity differences associated with differential surface preparation that can occur when immobilizing antibodies to surfaces; a strategy was employed where IL-31 was directly conjugated to the surface. Immobilization was obtained by amine coupling 5 μg/mL IL-31 using N-hydroxysuccinimide (NHS)/1-Ethyl-3-(3-dimethylaminopropyl) carbodiimide (EDC) chemistry. Chips were quenched with ethanolamine and the affinity with which all candidate mAbs bound to the immobilized IL-31 was evaluated. All curves were fit to a 1:1 model. […] Results for affinity measurements are described herein.
# [5] = target: T3, canine IL-31 protein (Canine_IL31); test: SPR (Biacore), IL-31 on chip, 1:1 fit
# [6] = target: T1, wildtype feline IL-31 protein …; test: cell-based or functional assay
binder,measurement,setting,value
B1,Binding Similarity score,[1],31.3
same,"% Inhibition Relative to Parent (pSTAT, FCWF-4 cells)",[2],29%
B2,Binding Similarity score,[1],100
same,"% Inhibition Relative to Parent (pSTAT, FCWF-4 cells)",[2],56.7%
B3,Binding Similarity score,[1],42.2
same,"% Inhibition Relative to Parent (pSTAT, FCWF-4 cells)",[2],59.7%
B4,Binding Similarity score,[1],11.7
same,"% Inhibition Relative to Parent (pSTAT, FCWF-4 cells)",[2],7.2%
B5,Binding Similarity score,[1],4.4
same,"% Inhibition Relative to Parent (pSTAT, FCWF-4 cells)",[2],1.3%
B6,Binding Similarity score,[1],20.9
same,"% Inhibition Relative to Parent (pSTAT, FCWF-4 cells)",[2],43.7%
B7,Binding Similarity score,[1],64.8
same,"% Inhibition Relative to Parent (pSTAT, FCWF-4 cells)",[2],29.2%
B8,binding result,[3],no binding
B9,Kd,[4],248 pM
same,koff,[4],0.000108 s⁻¹
same,kon,[4],437000 M⁻¹ s⁻¹
same,Kd,[5],0.826 pM
same,koff,[5],6.55e-07 s⁻¹
same,kon,[5],793000 M⁻¹ s⁻¹
same,"IC50, inhibition of feline IL-31-induced STAT3 phosphorylation, feline FCWF4 cells",[6],1.15 µg/mL
B10,Kd,[4],750 pM
same,koff,[4],0.000639 s⁻¹
same,kon,[4],852000 M⁻¹ s⁻¹
same,koff,[5],0.000318 s⁻¹
same,kon,[5],45200 M⁻¹ s⁻¹
same,"IC50, inhibition of feline IL-31-induced STAT3 phosphorylation, canine DH82 cells",[6],5.66 µg/mL
same,"IC50, inhibition of feline IL-31-induced STAT3 phosphorylation, feline FCWF4 cells",[6],4.38 µg/mL

# — patent US20250136677A1 (ZOETIS SERVICES, published 2025)
